Assay results as given in article PMC4722452.

How the values were obtained:
Sos^CatW729E = Sos^CatW729E (UniProt Q07889); test: other fluorescence titration; quenching of the intrinsic Trp fluorescence of Sos (10 μM) on adding Ras (1-50 μM) in Hepes buffer; excitation 295 nm, emission 336 nm; single-site quadratic fit; overall apparent (macroscopic) Kd
[1] = molecular target: Sos^Cat (Son of Sevenless, residues 563-1049) (UniProt Q07889); test: NMR titration; 1H,13C HMQC of [13C-methyl-Met,Ile]Sos^Cat or Sos^CatW729E (60 μM) with unlabelled Ras added at Ras:Sos 0.5:1 to 4:1; 298 K; Met methyl reporter signals M726 (allosteric), M824 (catalytic), M714 (between)
[2] = molecular target: Sos^Cat (Son of Sevenless, residues 563-1049) (UniProt Q07889); test: other fluorescence titration; quenching of the intrinsic Trp fluorescence of Sos (10 μM) on adding Ras (1-50 μM) in Hepes buffer; excitation 295 nm, emission 336 nm; single-site quadratic fit; overall apparent (macroscopic) Kd

| Kd (Sos^CatW729E) | apparent microscopic Kd, allosteric site (from the M726 signal shift) [1] | Kd [2] | Substance |
| --- | --- | --- | --- |
| 28 µM |  |  | H-Ras·GTPγS (from UniProt P01112 1-166) (domain or fragment) |
|  | 2 µM | 10 µM | K-Ras·GTPγS (from UniProt P01116 1-166) (domain or fragment) |
| 67 µM |  |  | H-Ras·GDP (from UniProt P01112 1-166) (domain or fragment) |
|  |  | 31 µM | K-RasG12V·GTPγS (from UniProt P01116 1-166) (domain or fragment) |
